{"source": "paper PMC13056530", "biological_target": "RorSlfn5, Schlafen nuclease fused to an Ig-like domain, from Raoultella ornithinolytica (Raoultella ornithinolytica)", "assay": "SEC-MALS", "data": [{"substance": "RorSlfn5, Schlafen nuclease fused to an Ig-like domain, from Raoultella ornithinolytica (enzyme)", "values": [{"measurement": "stoichiometry N", "value": 6}]}]}
